From patent publication US20130137856A1 (published 2013)
Substitutions are numbered along the chain they refer to.

Columns and labels:
[1] = molecular target: β2AR truncated after amino acid 365 (β2AR-365) having an amino terminal Flag epitope tag, native, … (human, UniProt P07550 1-365); assay: cell-based or functional assay
[2] = molecular target: full-length human β2AR in commercial insect cell-derived membranes (human, UniProt P07550 1-413); assay: cell-based or functional assay

B1: Nb67 (VHH, not shown: small tags and cut ends)
VHH: QVQLQESGGGLVQAGGSLRLSCAASGTISSFIAMGWYRQSPGKQRELVAGITSGGETNYEDSVKGRFTISRDNAKNTLYLQMNTLKPEDTAVYYCNAQVFADIFNLINYWGQGTQVTVSS
Question: With B1 as the binder, how does the “Isoproterenol Ki, [3H]-DHA competition binding on Sf9 membranes in the presence of 1 µM nanobody (β2AR alone: 295)” value (“Isoproterenol Ki” for short) [1] read?
Answer: Its value is 19.4 nM.

B2: Nanobody-80 (Nb80) (VHH, not shown: small tags and cut ends)
VHH: QVQLQESGGGLVQAGGSLRLSCAASGSIFSINTMGWYRQAPGKQRELVAAIHSGGSTNYANSVKGRFTISRDNAANTVYLQMNSLKPEDTAVYYCNVKDYGAVLYEYDYWGQGTQVTVSS
Question: With B2 as the binder, how does the “Potency shift of CGP12177A (antagonist): IC50 with irrelevant Nb / IC50 with 500 nM Nb80, 3H-DHA competition” value [2] read?
Answer: The value was 1 ratio.

Question: And the “Potency shift of ICI118,551 (inverse agonist): IC50 with irrelevant Nb / IC50 with 500 nM Nb80, 3H-DHA competition” value [2]?
Answer: The value was 0.9 ratio.

Question: And the “Potency shift of alprenolol (antagonist): IC50 with irrelevant Nb / IC50 with 500 nM Nb80, 3H-DHA competition” value [2]?
Answer: Its value is 1.1 ratio.

Question: What about the “Potency shift of carvedilol (antagonist): IC50 with irrelevant Nb / IC50 with 500 nM Nb80, 3H-DHA competition” value [2] of the same binder?
Answer: The value was 1.2 ratio.

Question: And the “Potency shift of dobutamine (partial agonist): IC50 with irrelevant Nb / IC50 with 500 nM Nb80, 3H-DHA competition” value [2]?
Answer: Its value is 2.3 ratio.

Question: What about the “Potency shift of fenoterol (full agonist): IC50 with irrelevant Nb / IC50 with 500 nM Nb80, 3H-DHA competition” value [2] of the same binder?
Answer: Its value is 3.7 ratio.

Question: What about the “Potency shift of formoterol (agonist): IC50 with irrelevant Nb / IC50 with 500 nM Nb80, 3H-DHA competition” value [2] of the same binder?
Answer: Its value is 4 ratio.

Question: What about the “Potency shift of isoproterenol (agonist): IC50 with irrelevant Nb / IC50 with 500 nM Nb80, 3H-DHA competition” value [2] of the same binder?
Answer: The value was 8.8 ratio.

Question: What about the “Potency shift of metaproterenol (agonist): IC50 with irrelevant Nb / IC50 with 500 nM Nb80, 3H-DHA competition” value [2] of the same binder?
Answer: Its value is 2.9 ratio.

Question: And the “Potency shift of procaterol (agonist): IC50 with irrelevant Nb / IC50 with 500 nM Nb80, 3H-DHA competition” value [2]?
Answer: The value was 2.3 ratio.

Question: What about the “Potency shift of ritodrine (agonist): IC50 with irrelevant Nb / IC50 with 500 nM Nb80, 3H-DHA competition” value [2] of the same binder?
Answer: The value was 2.7 ratio.

Question: What about the “Potency shift of salbutamol (partial agonist): IC50 with irrelevant Nb / IC50 with 500 nM Nb80, 3H-DHA competition” value [2] of the same binder?
Answer: The value was 4.2 ratio.

Question: And the “Potency shift of salmeterol (full agonist): IC50 with irrelevant Nb / IC50 with 500 nM Nb80, 3H-DHA competition” value [2]?
Answer: The value was 3.3 ratio.

Question: What about the “Potency shift of terbutaline (partial agonist): IC50 with irrelevant Nb / IC50 with 500 nM Nb80, 3H-DHA competition” value [2] of the same binder?
Answer: The value was 4.3 ratio.

Question: What about the “Potency shift of timolol (antagonist): IC50 with irrelevant Nb / IC50 with 500 nM Nb80, 3H-DHA competition” value [2] of the same binder?
Answer: Its value is 0.6 ratio.

B3: Nb65 (VHH, not shown: small tags and cut ends)
VHH: B2 VHH with N61D, K64R, A75K
Question: Which “Isoproterenol Ki” value [1] does the source give for B3 here?
Answer: The value was 13.8 nM.

B4: Nb71 (VHH, not shown: small tags and cut ends)
VHH: QVQLQESGGGLVQPGGSLRLSCAASGFAFSSYELRWYRQAPGKQHELVAGITTGGNTYYADSVKGRFTISRDNAKNTVYLQMSNLRPEDTAVYACNANWDLLSDYWGQGTQVTVSS
Question: Which “Isoproterenol Ki” value [1] does the source give for B4 here?
Answer: Its value is 10.6 nM.
